For the data set, the target named is T1, KHSRP130-503 (four KH domains) (Homo sapiens, UniProt Q92945 130-503).
T1 sequence: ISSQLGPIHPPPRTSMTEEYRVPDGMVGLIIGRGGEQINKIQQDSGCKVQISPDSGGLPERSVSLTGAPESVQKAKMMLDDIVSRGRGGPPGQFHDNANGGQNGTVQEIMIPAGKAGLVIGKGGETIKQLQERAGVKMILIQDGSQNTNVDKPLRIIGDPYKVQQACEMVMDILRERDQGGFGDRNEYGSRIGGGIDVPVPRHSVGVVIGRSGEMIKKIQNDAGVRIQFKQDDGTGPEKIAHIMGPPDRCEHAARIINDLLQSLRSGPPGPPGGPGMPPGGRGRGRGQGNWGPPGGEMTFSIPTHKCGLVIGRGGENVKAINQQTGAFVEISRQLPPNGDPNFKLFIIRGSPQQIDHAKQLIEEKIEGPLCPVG
The data set can be described thus: SPR; 25 C, single-cycle kinetics; SPR at 25 C, 1-20 uM G4 over immobilized protein (buffer not in the material); NMR at 25 C (298 K), protein in 5 mM KH2PO4/K2HPO4 pH 7.0, 20 mM KCl. The conditions noted are these: protein: recombinant, tags: N-terminal His-tag (pET-28a), TEV-cleaved.

Here are results for five molecules from publication PMC11848572, “Expanding the Functions of KHSRP Protein: Insights into DNA G‐Quadruplex Binding”.

The term Kd denotes a measure of binding affinity in units of concentration.

B1: Bcl-2 (structured_DNA)
DNA: GGGCGCGGGAGGAATTGGGCGGG
For B1, where the note is “hybrid G4, intramolecular”, the Kd was determined as 2000 ± 980 nM.

B2: c-Myc (structured_DNA)
DNA: TGAGGGTGGGTAGGGTGGGTAA
With B2, the Kd (parallel G4, intramolecular) was 130 ± 25 nM.

B3: mTel24 (structured_DNA)
DNA: TTGGGTTAGGGTTAGGGTTAGGGA
Consider B3, for which, under “hybrid G4, intramolecular”, the Kd is 1470 ± 480 nM.

B4: c-Kit2 (structured_DNA)
DNA: CGGGCGGGCGCTAGGGAGGGT
Take B4: the Kd (parallel G4, intramolecular) worked out at 56 ± 8 nM.

B5: c-Kit1 (structured_DNA)
DNA: AGGGAGGGCGCTGGGAGGAGGG
Turning to B5, the Kd (parallel G4, intramolecular) turned out to be 190 ± 90 nM.
